From patent US20040258659A1 (UNIVERSITE PIERRE ET MARIE CURIE PARIS VI, published 2004) come the findings set out here.

The target of assay [1] is T1, CCR5 (UniProt P51681 1-352, limits assumed). Briefly: cell-based or functional assay.
The target in assay [2] is T1, CCR5. Kind of assay: competitive radioligand binding on whole CHO-CCR5 cells at 4 C, 12 pM [125I]MIP-1α tracer. The procedure: Assays were carried out essentially as (11). CHO—CCR5 cells were seeded into 24 well plates (8×10⁴ cells/well). […] After incubation, cells were washed, lysed, and the lysaes counted using a Beckman Gamma 4000 scintillation counter. Determinations were performed in duplicate and IC₅₀ values derived from monophasic curves (competition binding; one-site) fitted using Prism software (GraphPad).

T1 sequence (P51681 whole entry): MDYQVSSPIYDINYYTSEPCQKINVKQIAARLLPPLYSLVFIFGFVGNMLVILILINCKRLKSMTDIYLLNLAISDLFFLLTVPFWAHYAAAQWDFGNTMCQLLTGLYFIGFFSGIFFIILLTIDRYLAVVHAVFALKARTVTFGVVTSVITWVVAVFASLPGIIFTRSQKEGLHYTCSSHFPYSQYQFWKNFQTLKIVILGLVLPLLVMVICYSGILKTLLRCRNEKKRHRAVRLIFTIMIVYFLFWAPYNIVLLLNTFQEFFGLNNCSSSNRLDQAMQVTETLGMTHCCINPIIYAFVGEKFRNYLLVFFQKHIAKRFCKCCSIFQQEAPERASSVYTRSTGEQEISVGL

B1: LSPVSSQSSA-RANTES (10-68) (P1) (ligand, human)
chain: LSPVSSQSSACCFAYIARPLPRAHIKEYFYTSGKCSNPAVVFVTRKNRQVCANPEKKWVREYINSLEMS
notes: range 33-91; Made by total chemical synthesis; The range 10-68 counts on mature RANTES, not on the precursor; also called mutant P1; variant P1
Take B1: the “IC50, R5-tropic envelope-mediated cell fusion assay” value with CCR5 [1] is 7 nM. For the same molecule, the concentration for half-maximal inhibition (IC50) (usually the midpoint of a concentration-inhibition curve) with CCR5 [2] is 0.3 nM.

B2: FSPLSSQSSA-RANTES (10-68) (P2) (ligand, human)
chain: FSPLSSQSSACCFAYIARPLPRAHIKEYFYTSGKCSNPAVVFVTRKNRQVCANPEKKWVREYINSLEMS
notes: range 33-91; Made by total chemical synthesis; The range 10-68 counts on mature RANTES, not on the precursor; also called mutant P2; RANTES P2
Consider B2, for which the “IC50, R5-tropic envelope-mediated cell fusion assay” value with CCR5 [1] amounted to 0.6 nM. Besides, the IC50 in the assay with CCR5 [2] is 0.2 nM.
